For assay [1], the target named is T1, soluble TPO-R (UniProt P40238 26-491). Put plainly: equilibrium binding ELISA, MBP-TPO or lacI-peptide tracer. (In an ELISA, binding on a coated surface is turned into a signal by an enzyme label.)
Assay [2] has as its target T2, full length human TPO-R (human, UniProt P40238 26-635).
T2 sequence (looked up): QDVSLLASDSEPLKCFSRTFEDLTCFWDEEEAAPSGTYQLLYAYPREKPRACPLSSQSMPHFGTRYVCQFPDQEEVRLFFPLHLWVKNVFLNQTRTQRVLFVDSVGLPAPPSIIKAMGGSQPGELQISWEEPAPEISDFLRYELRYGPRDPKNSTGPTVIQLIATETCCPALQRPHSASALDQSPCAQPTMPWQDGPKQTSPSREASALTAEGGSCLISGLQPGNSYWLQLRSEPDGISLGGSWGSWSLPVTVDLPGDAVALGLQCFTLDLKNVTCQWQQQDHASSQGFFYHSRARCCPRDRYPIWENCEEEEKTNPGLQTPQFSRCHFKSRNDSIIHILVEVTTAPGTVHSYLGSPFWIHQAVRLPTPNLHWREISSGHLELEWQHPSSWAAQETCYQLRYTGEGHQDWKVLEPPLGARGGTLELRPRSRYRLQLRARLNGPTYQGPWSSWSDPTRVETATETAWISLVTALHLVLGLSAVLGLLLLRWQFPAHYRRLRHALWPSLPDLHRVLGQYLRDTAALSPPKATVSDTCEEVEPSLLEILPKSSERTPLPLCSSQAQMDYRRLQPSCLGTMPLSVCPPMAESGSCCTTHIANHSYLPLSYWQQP
Put plainly: cell-based or functional assay.

Assay [3] has as its target T3, soluble TPO-R (UniProt P40238 26-491).
T3 construct: extracellular domain; Immobilized through anti-HPAP antibody Ab179; also called thrombopoietin receptor; c-mpl
Kind of assay: competition ELISA vs MBP-TPO156.
Method: (§1) The amount of alkaline phosphatase in each well was then determined using standard methods.
(§2) In this example cyclized compounds were subjected to three assays. First, $IC50$ valves were obtained as described above.

Assay [4] has as its target T2, full length human TPO-R. Put plainly: cell-based or functional assay. This is another data set of the same source.
Assay [5] concerns the target T1, soluble TPO-R. Put plainly: competition ELISA vs MBP-TPO156.
Method: as §1
For assay [6], the target named is T2, full length human TPO-R. Kind of assay: cell-based or functional assay. This is another data set of the same source.
For assay [7], the target named is T1, soluble TPO-R. Kind of assay: competition ELISA vs MBP-TPO156. This is another data set of the same source.
The target in assay [8] is T2, full length human TPO-R. Put plainly: cell-based or functional assay. The source holds these as a separate data set.
Assay [9] concerns the target T2, full length human TPO-R. Put plainly: cell-based or functional assay. The source holds these as a separate data set.
Assay [10] addresses T3, soluble TPO-R. Kind of assay: competition ELISA vs MBP-TPO156. The source holds these as a separate data set.
Method: as §1, §2
The target of assay [11] is T1, soluble TPO-R. Kind of assay: competition ELISA vs MBP-TPO156. This is another data set of the same source.
Method: as §1, §2
Assay [12] has as its target T1, soluble TPO-R. Kind of assay: competition ELISA vs MBP-TPO156. The source holds these as a separate data set.
Assay [13] addresses T1, soluble TPO-R. Put plainly: equilibrium binding ELISA, MBP-TPO or lacI-peptide tracer. This is another data set of the same source.
Assay [14] concerns the target T3, soluble TPO-R. Put plainly: competition ELISA vs MBP-TPO156. The source holds these as a separate data set.

In general, IC50 refers to the concentration needed to halve the response being measured. Lower therefore signals higher potency.

Like-named read-outs stand apart in the source and are kept apart here. Bridges are numbered along the chain shown (N, C = ends). Where no end group is shown, it is not given here. The star is where a group is joined. Biotin = O=C1N[C@H]2[C@H](CS[C@H]2CCCCC(=O)*)N1 Bounds are passed on as bounds.

As to TIKGPTLRQWLKSREHTS (free synthetic peptide) [T I K G P T L R Q W L K S R E H T S], the IC50 with soluble TPO-R [1] is at most 500 nM.
Turning to CADGPTLREWISAC (also: cyclized, mode not given here) [SEQ ID NO:12 cyclized, F - A], in the assay with full length human TPO-R [2], the EC50 cell proliferation was around 200000 nM and the EC50 microphysiometer is at most 200000 nM. In the assay with soluble TPO-R [3], the IC50 is at most 500 nM.
CIEGPTLRQWLAARAC (cysteine pairing not given here; also: further groups not given here, structure printed only as a drawing) [[drawing CHEM-US-00060] (SEQ ID NO:194)]: the EC50 cell proliferation with full length human TPO-R [4] was at most 500 nM. This molecule registered an IC50 with soluble TPO-R [5] of at most 500 nM.
On to CADGPTLREWIAFC (also: cyclized, mode not given here) [SEQ ID NO:12 cyclized, S - A], for which, in the assay with full length human TPO-R [2], the EC50 cell proliferation was at most 500 nM and the EC50 microphysiometer was at most 500 nM. Moreover, the IC50 in the assay with soluble TPO-R [3] was at most 500 nM.
Consider CIEGPTLRQWLAARA (also: further groups not given here, also called [drawing CHEM-US-00062]) [[drawing CHEM-US-00030] (SEQ ID NO:185)(SEQ ID NO:185)], for which the EC50 cell proliferation with full length human TPO-R [6] and with full length human TPO-R [4] was at most 500 nM each time. Moreover, the EC50 microphysiometer in the assay with full length human TPO-R [6] and with full length human TPO-R [4] was at most 500 nM in each case. Moreover, the half-maximal inhibitory concentration (IC50) in the assay with soluble TPO-R [7] and with soluble TPO-R [5] was at most 500 nM each time.
In the assay with full length human TPO-R [8], ADGPTLREWISFE (also: further groups not given here) [[drawing CHEM-US-00018] (SEQ ID NO:183)] yielded an EC50 cell proliferation of around 200000 nM and an EC50 microphysiometer of around 200000 nM.
GGCADGPTLREWISFCGGK(Biotin) (cysteine pairing not given here, also called AF 12285) [G G C A D G P T L R E W I S F C G G K (Biotin)] registered an IC50 in the assay with soluble TPO-R [1] of at most 500 nM.
The same measure, in the same setting: as for LAIEGPTLRQWLHGNGRDT (free synthetic peptide) [L A I E G P T L R Q W L H G N G R D T], the figure is at most 500 nM.
ADGPTLREWISFC-OH (also: further groups not given here) [SEQ ID NO:173 compound, free acid form]: in the assay with full length human TPO-R [9], the EC50 cell proliferation was at most 500 nM and the EC50 microphysiometer is at most 200000 nM.
In the assay with full length human TPO-R [8], ADGPTLREWISFC (also: further groups not given here, structure printed only as a drawing) [[drawing CHEM-US-00004] (SEQ ID NO:173)] had an EC50 cell proliferation of at most 500 nM and an EC50 microphysiometer of at most 500 nM. This molecule yielded an IC50 with soluble TPO-R [10] of at most 500 nM.
In the assay with full length human TPO-R [4], H-IEGPTLRQWLAARA-NH2 [[H]-IEGPTLRQWLAARA-[NH2]] gave an EC50 cell proliferation of at most 500 nM. Moreover, the IC50 in the assay with soluble TPO-R [5] is at most 500 nM.
As for SVQCGPTLRQWLAARNHLS (also: further groups not given here, structure printed only as a drawing) [[drawing CHEM-US-00032] (SEQ ID NO:187)(SEQ ID NO:187)], in the assay with full length human TPO-R [6], the EC50 cell proliferation was at most 500 nM and the EC50 microphysiometer is at most 500 nM. For the same molecule, the IC50 with soluble TPO-R [7] was at most 500 nM.
Regarding CADGPTLRQWISFC (also: cyclized, mode not given here) [SEQ ID NO:12 cyclized, E - Q], in the assay with full length human TPO-R [2], the EC50 cell proliferation was at most 500 nM and the EC50 microphysiometer is at most 200000 nM. This molecule displayed an IC50 with soluble TPO-R [11] of at most 500 nM.
ADGPTLREWISFCG (also: further groups not given here) [SEQ ID NO:173 compound, C-term, Gly addition] came in with an EC50 cell proliferation with full length human TPO-R [9] of at most 500 nM. Besides, the IC50 with soluble TPO-R [12] was at most 500 nM.
Consider CPTLREWISFC (disulfide 1-11 (inferred); not fully specified) [SEQ ID NO:12 cyclized, ADG - deletion], for which the EC50 microphysiometer in the assay with full length human TPO-R [2] was at most 200000 nM. Also, in the assay with soluble TPO-R [11], the IC50 is at most 200000 nM.
Take MVGPTLRSGC (also: further groups not given here, structure printed only as a drawing) [[drawing CHEM-US-00033] (SEQ ID NO:188)(SEQ ID NO:188)]: in the assay with full length human TPO-R [6], the EC50 cell proliferation was at most 200000 nM. In the assay with soluble TPO-R [7], this molecule showed an IC50 of around 200000 nM.
For the molecule GGCTLREWLHGGFCGG (free synthetic peptide) [G G C T L R E W L H G G F C G G], the IC50 in the assay with soluble TPO-R [13] was at most 500 nM.
In the assay with full length human TPO-R [2], CAAGPTLREWISFC (also: cyclized, mode not given here) [SEQ ID NO:12 cyclized, D - A] returned an EC50 cell proliferation of at most 200000 nM and an EC50 microphysiometer of at most 200000 nM. For the same molecule, the IC50 with soluble TPO-R [11] was at most 500 nM.
In the assay with full length human TPO-R [6], H-CADGPTLREWISFC-NH2 (disulfide 1-14 (inferred), also called [drawing CHEM-US-00034]) [cyclized monomer (SEQ ID NO:12)] gave an EC50 cell proliferation of at most 500 nM and an EC50 microphysiometer of at most 500 nM. In addition, in the assay with soluble TPO-R [14], the half-maximal inhibitory concentration (IC50) is at most 500 nM.
In the assay with full length human TPO-R [6], DGPTLREWISFC (also: further groups not given here, structure printed only as a drawing) [[drawing CHEM-US-00037] (SEQ ID NO:189)(SEQ ID NO:189)] yielded an EC50 cell proliferation of at most 500 nM and an EC50 microphysiometer of at most 500 nM. For the same molecule, the IC50 with soluble TPO-R [7] was at most 500 nM.
In the assay with soluble TPO-R [1], GNADGPTLRQWLEGRRPKN (free synthetic peptide) [G N A D G P T L R Q W L E G R R P K N] registered an IC50 of at most 500 nM.
As to CADGPTLREWISF (also: further groups not given here, structure printed only as a drawing) [[drawing CHEM-US-00031] (SEQ ID NO:186)(SEQ ID NO:186)], in the assay with full length human TPO-R [6], the EC50 cell proliferation is at most 500 nM and the EC50 microphysiometer was at most 500 nM. The same molecule came in with a half-inhibitory concentration (IC50) in the assay with soluble TPO-R [7] of at most 500 nM.
Take SIEGPTLREWLTSRTPHS (free synthetic peptide) [S I E G P T L R E W L T S R T P H S]: in the assay with soluble TPO-R [1], the IC50 was at most 500 nM.
On the same count and under the same terms, as for GGCADGPTLREWISFCGG (free synthetic peptide) [G G C A D G P T L R E W I S F C G G], the figure is at most 500 nM.
Take ADGPTLREWISFC (also: further groups not given here) [[drawing CHEM-US-00017] (SEQ ID NO:173)]: in the assay with full length human TPO-R [8], the EC50 cell proliferation was at most 500 nM and the EC50 microphysiometer was around 200000 nM.
For ADGPTLREWISFC (also: further groups not given here) [[drawing CHEM-US-00016] (SEQ ID NO:173)], in that order: at most 500 nM and at most 200000 nM.

These data come from patent publication US7091311 (GlaxoSmithKline, dated 2006).
